Where a chain is given by its changes, count along the chain named.
Experiments:
[1] = target: GST-tagged partial EGFR fragment #3 (codons 1046-1186) (UniProt P00533)
[2] = target: active recombinant EGFR (Millipore) (UniProt P00533)
[3] = tested on: active recombinant MET (Millipore)
[4] = tested on: T1, WDHD1 S374A immunoprecipitant
T1 sequence: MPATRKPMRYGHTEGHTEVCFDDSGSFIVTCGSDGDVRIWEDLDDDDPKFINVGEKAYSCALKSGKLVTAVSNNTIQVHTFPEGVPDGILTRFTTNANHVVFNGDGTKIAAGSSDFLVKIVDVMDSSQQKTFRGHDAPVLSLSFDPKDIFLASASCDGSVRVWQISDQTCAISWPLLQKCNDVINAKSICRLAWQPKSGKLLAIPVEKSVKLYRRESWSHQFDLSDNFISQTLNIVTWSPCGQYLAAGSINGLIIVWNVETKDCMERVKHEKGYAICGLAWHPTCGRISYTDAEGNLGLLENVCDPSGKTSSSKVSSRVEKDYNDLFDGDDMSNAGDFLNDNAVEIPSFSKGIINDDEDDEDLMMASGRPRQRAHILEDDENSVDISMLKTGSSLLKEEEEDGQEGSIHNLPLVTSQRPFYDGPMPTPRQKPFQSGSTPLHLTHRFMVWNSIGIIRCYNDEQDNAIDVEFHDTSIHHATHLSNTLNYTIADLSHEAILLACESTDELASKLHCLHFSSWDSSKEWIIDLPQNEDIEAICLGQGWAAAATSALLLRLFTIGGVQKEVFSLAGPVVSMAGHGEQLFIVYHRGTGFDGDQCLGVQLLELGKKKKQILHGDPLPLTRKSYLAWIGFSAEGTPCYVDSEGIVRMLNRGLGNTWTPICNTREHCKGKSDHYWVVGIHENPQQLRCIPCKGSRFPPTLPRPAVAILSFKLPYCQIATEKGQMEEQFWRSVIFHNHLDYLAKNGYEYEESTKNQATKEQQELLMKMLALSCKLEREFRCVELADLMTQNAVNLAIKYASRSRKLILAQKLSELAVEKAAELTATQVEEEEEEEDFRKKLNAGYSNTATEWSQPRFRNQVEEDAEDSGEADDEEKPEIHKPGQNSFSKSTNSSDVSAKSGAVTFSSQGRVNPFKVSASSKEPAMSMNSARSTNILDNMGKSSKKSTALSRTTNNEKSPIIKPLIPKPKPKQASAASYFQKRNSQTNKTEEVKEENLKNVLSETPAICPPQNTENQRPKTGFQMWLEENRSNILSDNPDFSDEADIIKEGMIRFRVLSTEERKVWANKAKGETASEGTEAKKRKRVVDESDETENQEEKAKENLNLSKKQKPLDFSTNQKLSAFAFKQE

[5] = tested on: T2, WDHD1 immunoprecipitant, wild type (c-Myc-tagged WDHD1, pcDNA3.1/myc-His-WDHD1)
T2 sequence: T1 sequence with A374S

Sequence of active recombinant EPHA7 (Carnabioscience) (chain, as listed by the source): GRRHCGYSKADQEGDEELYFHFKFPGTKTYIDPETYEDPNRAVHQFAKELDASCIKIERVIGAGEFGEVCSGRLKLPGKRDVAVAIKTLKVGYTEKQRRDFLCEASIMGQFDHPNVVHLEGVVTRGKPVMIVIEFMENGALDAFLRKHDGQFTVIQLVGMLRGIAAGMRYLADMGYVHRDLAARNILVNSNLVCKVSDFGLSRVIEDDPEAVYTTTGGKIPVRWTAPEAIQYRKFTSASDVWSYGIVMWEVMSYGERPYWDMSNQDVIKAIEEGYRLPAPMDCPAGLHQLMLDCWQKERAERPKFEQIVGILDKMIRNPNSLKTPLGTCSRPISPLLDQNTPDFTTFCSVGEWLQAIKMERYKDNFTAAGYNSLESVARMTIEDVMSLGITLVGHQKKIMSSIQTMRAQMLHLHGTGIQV
Sequence of active recombinant MET (Millipore) (chain, as listed by the source): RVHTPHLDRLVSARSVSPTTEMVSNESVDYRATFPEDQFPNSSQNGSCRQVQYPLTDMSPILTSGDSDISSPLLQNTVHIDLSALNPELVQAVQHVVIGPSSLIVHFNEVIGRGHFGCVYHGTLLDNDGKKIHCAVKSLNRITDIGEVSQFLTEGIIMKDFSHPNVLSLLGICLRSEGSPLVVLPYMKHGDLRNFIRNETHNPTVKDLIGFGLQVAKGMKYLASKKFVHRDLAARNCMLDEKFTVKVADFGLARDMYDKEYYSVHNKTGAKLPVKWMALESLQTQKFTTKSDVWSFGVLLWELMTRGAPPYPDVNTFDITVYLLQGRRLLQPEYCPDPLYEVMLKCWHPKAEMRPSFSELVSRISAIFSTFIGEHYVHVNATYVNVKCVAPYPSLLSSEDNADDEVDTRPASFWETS

| Substance | in vitro kinase assay (phosphorylation of partial EGFR fragment) [1] | in vitro kinase assay (phosphorylation of EGFR) [2] | in vitro kinase assay (level of EPHA7 phosphorylation) [3] | in vitro kinase assay (phosphorylation of MET) [3] | in vitro kinase assay, immunoblot with PAS antibody [4] | in vitro kinase assay, immunoblot with PAS antibody [5] |
| --- | --- | --- | --- | --- | --- | --- |
| active recombinant EPHA7 (Carnabioscience) | phosphorylated tyrosine residues on cytoplasmic EGFR could be present in COOH-terminal portion (codons 1046-1186) | EPHA7 could directly phosphorylate EGFR under the existence of EGFR kinase inhibitor that had diminished autophosphorylation of EGFR | the level of EPHA7 phosphorylation was markedly elevated when MET was co-incubated in the presence MET kinase inhibitor | EPHA7 could directly phosphorylate MET |  |  |
| recombinant human AKT1 (rhAKT1; Invitrogen) |  |  |  |  | clearly indicated the reduced levels of WDHD1 phosphorylation in cells transfected with S374A mutant | proved the direct phosphorylation of WDHD1 by AKT |

Reference: patent publication US20110160280
